# Publication PMC4351158 (Structure (London, England : 1993), 2015)
# How the values were obtained:
# [1] = system: DegS; settings: substrate-saturated; ref Sohn and Sauer, 2009; cited from earlier work
# [2] = system: periplasmic domain of RseA; experiment: Cleavage of 35S-labeled RseA periplasmic domain by DegS variants; type: biochemical, E. coli; settings: H198P background; compared to H198P
Molecule,DegS in the active conformation [1],"YYF-stimulated cleavage activity, in words [2]"
"WT DegS: Wild-type E. coli DegS (residues 27–355) with N-terminal His6 tag replacing the membrane anchor (protein, left off: His6, N-terminal, state not stated) RSLNPLSTPQFDSTDETPASYNLAVRRAAPAVVNVYNRGLNTNSHNQLEIRTLGSGVIMDQRGYIITNKHVINDADQIIVALQDGRVFEALLVGSDSLTDLAVLKINATGGLPTIPINARRVPHIGDVVLAIGNPYNLGQTITQGIISATGRIGLNPTGRQNFLQTDASINHGNSGGALVNSLGELMGINTLSFDKSNDGETPEGIGFAIPFQLATKIMDKLIRDGRVIRGYIGIGGREIAPLHAQGGGIDQLQGIVVNEVSPDGPAANAGIQVNDLIISVDNKPAISALETMDQVAEIRPGSVIPVVVMRDDKQLTLQVTIQEYPATN",~ 0.3%,
"H198P/E230A (protein, UniProt P0AEE3 1-355, looked up, variant H198P E230A) Serine endoprotease DegS: MFVKLLRSVAIGLIVGAILLVAMPSLRSLNPLSTPQFDSTDETPASYNLAVRRAAPAVVNVYNRGLNTNSHNQLEIRTLGSGVIMDQRGYIITNKHVINDADQIIVALQDGRVFEALLVGSDSLTDLAVLKINATGGLPTIPINARRVPHIGDVVLAIGNPYNLGQTITQGIISATGRIGLNPTGRQNFLQTDASINPGNSGGALVNSLGELMGINTLSFDKSNDGETPAGIGFAIPFQLATKIMDKLIRDGRVIRGYIGIGGREIAPLHAQGGGIDQLQGIVVNEVSPDGPAANAGIQVNDLIISVDNKPAISALETMDQVAEIRPGSVIPVVVMRDDKQLTLQVTIQEYPATN",,activity within error of H198P
